# Experimental data reported in US20180021429A1, “ANTICANCER AGENTS OR ANTIMETASTATIC AGENTS USING FSTL1 AND COMBINATION DRUG THEREOF” (PHARMA FOODS INTERNATIONAL CO., LTD., priority 2015, published 2018).
# “Also recorded” adds a separate entry of the source.
# B1: #8-7: chicken-mouse chimeric anti-FSTL1 antibody clone; variable regions SEQ ID NO: 799 (light), 801 (heavy) (antibody, V domains shown)
# VH: AVTLDESGGGLQTPGGGLSLVCKGSGFTFSSFNMFWVRQAPGKGLEWVAGIGKDGVPKYGAAVDGRATISKDNGQSTLRLQLNNLRAEDTGTYFCAKAAGGCSYDWCGIYAGDIDTWGHGTEVIVSS
# VL: ASTQPSSVSANPGEAVKITCSGGSGSYYGWYQQKSPGSAPVTVIYNNNQRPSDIPSRFSGSKSGSTATLTITGVQAEDEAVYFCGGYDSSTGHGGIFGAGTTLTVL
# modifications: mouse constant regions
# Test system: induction of mesenchymal stem cells (MSCs) by FSTL1
# Assay: Inhibitory activity against induction of MSC by FSTL1, CD45-negative cells (Examples 6, 8, 12)
# Format: cell-based, mouse
# Conditions: Example 12, FIG. 7/37; FSTL1 20 ng/mL; antibody 10 μg/mL; 8 days
# Method: (§1) Mouse bone marrow cells prepared in the same way as in Example 4 were supplemented with 50 ng/mL (final concentration) of FSTL1 and 10 μg/mL of the anti-FSTL1 antibody (#5-2, #5-3, #5-8, #5-10, 45-43, #6-55, or #7-34) or a control antibody anti-DNP antibody and cultured under stimulation. 11 days thereafter, the number of cells was counted while the cells were stained with a PE-Cy5-labeled anti-CD45 antibody (BD Pharmingen/Becton, Dickinson and Company, Cat. No. 555484), and the content of CD45-negative cells reported to generally contain MSCs at a high rate was analyzed by flow cytometry using FACScan to calculate the percentage and number of MSCs per culture (FIG. 5A).
# (§2) Mouse bone marrow cells prepared in the same way as in Example 4 were supplemented with 20 ng/mL (final concentration) of FSTL1 and 10 μg/mL of the anti-FSTL1 antibody (#5-2, #5-3, #5-8, #5-10, #5-43, #6-55, #8-1, #8-4, #8-7, and #8-8) or a control antibody anti-DNP antibody and cultured under stimulation. 8 days thereafter, the number of cells was counted while the cells were stained with a PE-Cy5-labeled anti-CD45 antibody, and the content of CD45-negative cells was analyzed by flow cytometry using FACScan to calculate the percentage and number of MSCs per culture (FIG. 6A).
# as §2, with “(#5-2,” for “(#5-2, #5-3,”, “#5-8,” for “#5-8, #5-10, #5-43,”, “#6-55, #7-34,” for “#6-55,”, “#8-7, or” for “#8-7, and”, “(FIG. 7).” for “(FIG. 6A).”
# as §1, with “35A).” for “5A).”
# as §2, with “36A).” for “6A).”
# as §2, with “(#5-2,” for “(#5-2, #5-3,”, “#5-8,” for “#5-8, #5-10, #5-43,”, “#6-55, #7-34,” for “#6-55,”, “#8-7, or” for “#8-7, and”, “(FIG. 37).” for “(FIG. 6A).”
molecule,measurement,value
B1,inhibitory activity against the expansion of CD45-negative cells by FSTL1,"higher inhibitory activity was confirmed in the order of #7-34, #5-2, #6-55, and #8-7; also recorded: stronger inhibitory activity was confirmed in the order of clone #7-34, #5-2, 46-55, and #8-7"
